Measured values reported in patent US20210388087A1 (Chugai, published 2021).

B1: CE115HA000 N53A (antibody, human IgG1, kappa, L234A L235A, N297A, name in Kabat numbering)
heavy: QVQLVESGGGVVQPGRSLRLSCAASGFTFSNAWMHWVRQAPGKGLEWVAQIKAKSANYATYYAESVKGRFTISRDDSKNSLYLQMNSLKTEDTAVYYCRYVHYGAYYGVDAWGQGTTVTVSSASTKGPSVFPLAPSSKSTSGGTAALGCLVKDYFPEPVTVSWNSGALTSGVHTFPAVLQSSGLYSLSSVVTVPSSSLGTQTYICNVNHKPSNTKVDKKVEPKSCDKTHTCPPCPAPEAAGGPSVFLFPPKPKDTLMISRTPEVTCVVVDVSHEDPEVKFNWYVDGVEVHNAKTKPREEQYASTYRVVSVLTVLHQDWLNGKEYKCKVSNKALPAPIEKTISKAKGQPREPQVYTLPPSRCELTKNQVSLSCAVKGFYPSDIAVEWESNGQPENNYKTTPPVLDSDGSFFLVSKLTVDKSRWQQGNVFSCSVMHEALHNHYTQKSLSLSPDYKDDDDK
chain: EPKSSDKTHTCPPCPAPELLGGPSVFLFPPKPKDTLMISRTPEVTCVVVDVSHEDPEVKFNWYVDGVEVHNAKTKPREEQYNSTYRVVSVLTVLHQDWLNGKEYKCKVSNKALPAPIEKTISKAKGQPREPQVCTLPPSRDELTKNQVSLWCLVKGFYPSDIAVEWESNGQPENNYKTTPPVLDSDGSFFLYSKLTVDKSRWQQGNVFSCSVMHEALHNRYTQKSLSLSP
light: DIVMTQSPLSLPVTPGEPASISCRSSQSLVHSNRNTYLHWYQQKPGQAPRLLIYKVSNRFSGVPDRFSGSGSGTDFTLKISRVEAEDVGVYYCGQGTQVPYTFGQGTKLEIKRTVAAPSVFIFPPSDEQLKSGTASVVCLLNNFYPREAKVQWKVDNALQSGNSQESVTEQDSKDSTYSLSSTLTLSKADYEKHKVYACEVTHQGLSSPVTKSFNRGEC
notes: one-arm antibody
B2: CE115HA000 N53D (antibody, human IgG1, kappa, L234A L235A, N297A, name in Kabat numbering)
heavy: QVQLVESGGGVVQPGRSLRLSCAASGFTFSNAWMHWVRQAPGKGLEWVAQIKAKSDNYATYYAESVKGRFTISRDDSKNSLYLQMNSLKTEDTAVYYCRYVHYGAYYGVDAWGQGTTVTVSSASTKGPSVFPLAPSSKSTSGGTAALGCLVKDYFPEPVTVSWNSGALTSGVHTFPAVLQSSGLYSLSSVVTVPSSSLGTQTYICNVNHKPSNTKVDKKVEPKSCDKTHTCPPCPAPEAAGGPSVFLFPPKPKDTLMISRTPEVTCVVVDVSHEDPEVKFNWYVDGVEVHNAKTKPREEQYASTYRVVSVLTVLHQDWLNGKEYKCKVSNKALPAPIEKTISKAKGQPREPQVYTLPPSRCELTKNQVSLSCAVKGFYPSDIAVEWESNGQPENNYKTTPPVLDSDGSFFLVSKLTVDKSRWQQGNVFSCSVMHEALHNHYTQKSLSLSPDYKDDDDK
chain: EPKSSDKTHTCPPCPAPELLGGPSVFLFPPKPKDTLMISRTPEVTCVVVDVSHEDPEVKFNWYVDGVEVHNAKTKPREEQYNSTYRVVSVLTVLHQDWLNGKEYKCKVSNKALPAPIEKTISKAKGQPREPQVCTLPPSRDELTKNQVSLWCLVKGFYPSDIAVEWESNGQPENNYKTTPPVLDSDGSFFLYSKLTVDKSRWQQGNVFSCSVMHEALHNRYTQKSLSLSP
light: DIVMTQSPLSLPVTPGEPASISCRSSQSLVHSNRNTYLHWYQQKPGQAPRLLIYKVSNRFSGVPDRFSGSGSGTDFTLKISRVEAEDVGVYYCGQGTQVPYTFGQGTKLEIKRTVAAPSVFIFPPSDEQLKSGTASVVCLLNNFYPREAKVQWKVDNALQSGNSQESVTEQDSKDSTYSLSSTLTLSKADYEKHKVYACEVTHQGLSSPVTKSFNRGEC
notes: one-arm antibody
B3: CE115HA000 N53G (antibody, human IgG1, kappa, L234A L235A, N297A, name in Kabat numbering)
heavy: QVQLVESGGGVVQPGRSLRLSCAASGFTFSNAWMHWVRQAPGKGLEWVAQIKAKSGNYATYYAESVKGRFTISRDDSKNSLYLQMNSLKTEDTAVYYCRYVHYGAYYGVDAWGQGTTVTVSSASTKGPSVFPLAPSSKSTSGGTAALGCLVKDYFPEPVTVSWNSGALTSGVHTFPAVLQSSGLYSLSSVVTVPSSSLGTQTYICNVNHKPSNTKVDKKVEPKSCDKTHTCPPCPAPEAAGGPSVFLFPPKPKDTLMISRTPEVTCVVVDVSHEDPEVKFNWYVDGVEVHNAKTKPREEQYASTYRVVSVLTVLHQDWLNGKEYKCKVSNKALPAPIEKTISKAKGQPREPQVYTLPPSRCELTKNQVSLSCAVKGFYPSDIAVEWESNGQPENNYKTTPPVLDSDGSFFLVSKLTVDKSRWQQGNVFSCSVMHEALHNHYTQKSLSLSPDYKDDDDK
chain: EPKSSDKTHTCPPCPAPELLGGPSVFLFPPKPKDTLMISRTPEVTCVVVDVSHEDPEVKFNWYVDGVEVHNAKTKPREEQYNSTYRVVSVLTVLHQDWLNGKEYKCKVSNKALPAPIEKTISKAKGQPREPQVCTLPPSRDELTKNQVSLWCLVKGFYPSDIAVEWESNGQPENNYKTTPPVLDSDGSFFLYSKLTVDKSRWQQGNVFSCSVMHEALHNRYTQKSLSLSP
light: DIVMTQSPLSLPVTPGEPASISCRSSQSLVHSNRNTYLHWYQQKPGQAPRLLIYKVSNRFSGVPDRFSGSGSGTDFTLKISRVEAEDVGVYYCGQGTQVPYTFGQGTKLEIKRTVAAPSVFIFPPSDEQLKSGTASVVCLLNNFYPREAKVQWKVDNALQSGNSQESVTEQDSKDSTYSLSSTLTLSKADYEKHKVYACEVTHQGLSSPVTKSFNRGEC
notes: one-arm antibody
B4: CE115HA000 N53H (antibody, human IgG1, kappa, L234A L235A, N297A, name in Kabat numbering)
heavy: QVQLVESGGGVVQPGRSLRLSCAASGFTFSNAWMHWVRQAPGKGLEWVAQIKAKSHNYATYYAESVKGRFTISRDDSKNSLYLQMNSLKTEDTAVYYCRYVHYGAYYGVDAWGQGTTVTVSSASTKGPSVFPLAPSSKSTSGGTAALGCLVKDYFPEPVTVSWNSGALTSGVHTFPAVLQSSGLYSLSSVVTVPSSSLGTQTYICNVNHKPSNTKVDKKVEPKSCDKTHTCPPCPAPEAAGGPSVFLFPPKPKDTLMISRTPEVTCVVVDVSHEDPEVKFNWYVDGVEVHNAKTKPREEQYASTYRVVSVLTVLHQDWLNGKEYKCKVSNKALPAPIEKTISKAKGQPREPQVYTLPPSRCELTKNQVSLSCAVKGFYPSDIAVEWESNGQPENNYKTTPPVLDSDGSFFLVSKLTVDKSRWQQGNVFSCSVMHEALHNHYTQKSLSLSPDYKDDDDK
chain: EPKSSDKTHTCPPCPAPELLGGPSVFLFPPKPKDTLMISRTPEVTCVVVDVSHEDPEVKFNWYVDGVEVHNAKTKPREEQYNSTYRVVSVLTVLHQDWLNGKEYKCKVSNKALPAPIEKTISKAKGQPREPQVCTLPPSRDELTKNQVSLWCLVKGFYPSDIAVEWESNGQPENNYKTTPPVLDSDGSFFLYSKLTVDKSRWQQGNVFSCSVMHEALHNRYTQKSLSLSP
light: DIVMTQSPLSLPVTPGEPASISCRSSQSLVHSNRNTYLHWYQQKPGQAPRLLIYKVSNRFSGVPDRFSGSGSGTDFTLKISRVEAEDVGVYYCGQGTQVPYTFGQGTKLEIKRTVAAPSVFIFPPSDEQLKSGTASVVCLLNNFYPREAKVQWKVDNALQSGNSQESVTEQDSKDSTYSLSSTLTLSKADYEKHKVYACEVTHQGLSSPVTKSFNRGEC
notes: one-arm antibody

These binders were tested against T1, CD3 epsilon homodimer protein (UniProt P07766 23-126) (assay: SPR, CD3 epsilon homodimer on chip, one-arm antibody as analyte;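 also: surface plasmon resonance at 25 °C with CD3 epsilon homodimer amine-coupled to a CM4 sensor chip, antibody injected as analyte, HBS-EP+ as running buffer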).
T1 construct: also called CD3 (CD3 epsilon)
T1 sequence (P07766 23-126): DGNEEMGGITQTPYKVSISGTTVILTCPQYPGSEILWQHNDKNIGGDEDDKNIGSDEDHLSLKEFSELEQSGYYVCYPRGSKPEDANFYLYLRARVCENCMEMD

**Q.** B1 was tested. Which “KD ratio (KD of CE115HA000/KD of altered form)” value (“KD ratio” for short) did it give?
**A.** 0.55

**Q.** For B2, which “KD ratio” value is on record?
**A.** 0.55

**Q.** Which “KD ratio” value does the source give for B3 here?
**A.** 0.95

**Q.** How did the “KD ratio” value turn out when B4 was run?
**A.** 0.55
